Results published in patent US20230212549A1 (3B PHARMACEUTICALS, published 2023).
Numbered stars: 1 amine (or outer) side, 2 acyl side, 3 side chain; on linkers, the order of the positions; unused ones are H or OH. Bridge positions count the residues as written; N and C are the ends. Square brackets hold non-standard residues; d marks the D form. Primed or numbered codes have the meaning given here. * marks the point of attachment. tMeBn(LuDOTA-AET) = 1,3,5-trimethylbenzylidene (from 1,3,5-tris(bromomethyl)benzene) bridge with two thioethers to the Cys, its third CH2 carries AET (2-aminoethanethiol, attached through S), whose amine is acylated by DOTA complexing lutet, O=C([O-])CN1CCN(CC(=O)[O-])CCN(CC(=O)NCCSCc2cc(C[*:1])cc(C[*:2])c2)CCN(CC(=O)[O-])CC1.[Lu+3]; Ttds″ = 1,13-diamino-4,7,10-trioxatridecan-succinamic acid spacer, O=C(CCC(=O)[*:2])NCCCOCCOCCOCCCN[*:1]; TBMB(SCH2CH2NH-DOTA) = O=C(O)CN1CCN(CC(=O)O)CCN(CC(=O)NCCSCc2cc(C[*:1])cc(C[*:2])c2)CCN(CC(=O)O)CC1; Ttds = 1,13-diamino-4,7,10-trioxatridecan-succinamic acid, O=C(CCC(=O)[*:2])NCCCOCCOCCOCCCN[*:1]; Ttds(4) = spacer between chelator and peptide, O=C(CCC(=O)[*:2])NCCCOCCOCCOCCCN[*:1]; DOTA = O=C(O)CN1CCN(CC(=O)O)CCN(CC(=O)*)CCN(CC(=O)O)CC1; nBu‑CAyl = n-butylaminocarbonyl, CCCCNC(=O)*; mXylylene = c1cc(C[*:1])cc(C[*:2])c1; AF488 = Alexa Fluor 488 label; Nle = CCCC[C@H](N)C(=O)O; Hexanoyl = CCCCCC(=O)*; GABA = NCCCC(=O)O; Sar = CNCC(=O)O

Assays:
[1] = target: T1, Recombinant human FAP (R&D systems, #3715-SE) (human, UniProt Q12884 26-760); test: cell-based or functional assay
[2] = target: T2, human fibroblast activation protein (FAP) on WI-38 fibroblasts (human, UniProt Q12884 1-760); test: competitive FACS, WI-38 cells, Cy5-labeled peptide as competitor
T2 construct: FAP-expressing human WI-38 fibroblasts (ECACC)

[3] = target: T3, recombinant human PREP (R&D systems, #4308-SE) (human, UniProt P48147 1-710); test: cell-based or functional assay
T3 sequence: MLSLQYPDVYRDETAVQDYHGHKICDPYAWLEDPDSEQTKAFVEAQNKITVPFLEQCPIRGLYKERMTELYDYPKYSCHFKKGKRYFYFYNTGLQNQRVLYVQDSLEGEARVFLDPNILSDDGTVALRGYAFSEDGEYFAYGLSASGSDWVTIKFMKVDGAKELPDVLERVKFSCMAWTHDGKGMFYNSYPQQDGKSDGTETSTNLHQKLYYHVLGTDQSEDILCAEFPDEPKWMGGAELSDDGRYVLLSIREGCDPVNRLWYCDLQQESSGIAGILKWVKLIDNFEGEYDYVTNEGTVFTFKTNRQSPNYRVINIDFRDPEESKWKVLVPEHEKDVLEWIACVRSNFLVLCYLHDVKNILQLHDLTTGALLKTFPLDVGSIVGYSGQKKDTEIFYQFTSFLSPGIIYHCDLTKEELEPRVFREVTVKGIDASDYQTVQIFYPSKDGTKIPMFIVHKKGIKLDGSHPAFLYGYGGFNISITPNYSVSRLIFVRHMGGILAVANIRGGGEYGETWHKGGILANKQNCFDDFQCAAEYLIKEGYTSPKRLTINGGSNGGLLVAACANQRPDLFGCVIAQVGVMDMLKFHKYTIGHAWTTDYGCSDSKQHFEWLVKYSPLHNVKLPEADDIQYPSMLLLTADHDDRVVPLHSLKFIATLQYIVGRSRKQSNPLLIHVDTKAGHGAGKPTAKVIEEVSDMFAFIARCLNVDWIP

[4] = target: Recombinant human DPP4 (R&D systems, #9168-SE) (human, UniProt P27487 29-766); test: cell-based or functional assay
Sequence of Recombinant human DPP4 (R&D systems, #9168-SE) (P27487 29-766 limits assumed): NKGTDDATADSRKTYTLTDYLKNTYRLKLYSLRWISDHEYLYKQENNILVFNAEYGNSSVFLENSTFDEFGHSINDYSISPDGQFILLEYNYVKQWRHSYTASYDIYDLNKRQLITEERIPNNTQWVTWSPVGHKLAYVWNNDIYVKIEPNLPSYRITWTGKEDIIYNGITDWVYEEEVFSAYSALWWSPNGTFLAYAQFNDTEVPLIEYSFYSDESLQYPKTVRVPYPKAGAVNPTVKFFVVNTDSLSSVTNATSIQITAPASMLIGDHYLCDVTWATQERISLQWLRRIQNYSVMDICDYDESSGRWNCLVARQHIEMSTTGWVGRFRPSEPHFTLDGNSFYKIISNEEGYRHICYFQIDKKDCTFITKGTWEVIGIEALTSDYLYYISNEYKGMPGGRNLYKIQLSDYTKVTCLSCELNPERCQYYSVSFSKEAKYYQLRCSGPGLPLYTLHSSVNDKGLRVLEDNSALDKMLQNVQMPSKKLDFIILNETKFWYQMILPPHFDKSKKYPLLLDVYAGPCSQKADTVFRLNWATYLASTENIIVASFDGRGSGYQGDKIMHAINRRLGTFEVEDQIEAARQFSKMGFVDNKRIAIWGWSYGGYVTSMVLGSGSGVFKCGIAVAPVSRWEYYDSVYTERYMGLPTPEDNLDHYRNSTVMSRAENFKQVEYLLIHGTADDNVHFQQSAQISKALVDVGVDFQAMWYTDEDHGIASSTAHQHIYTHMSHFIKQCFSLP

[5] = target: T1, Recombinant human FAP (R&D systems, …); test: SPR (Biacore T200), FAP captured on anti-FAP antibody, single cycle kinetics

B1: Hex-[Cys(tMeBn(LuDOTA-AET))-Pro-Pro-Thr-Gln-Phe-Cys]-Asp-Gab-Arg-Ttds-Lys(AF488)-NH2 (peptide)
peptide: Hexanoyl-CPPTQFCD[GABA]R[Ttds″]K(AF488)-NH2
modifications: linker 1-7 via tMeBn(LuDOTA-AET); not fully specified (residue 1); printed as Hex-[Cys(tMeBn(LuDOTA-AET))-Pro-Pro-Thr-Gln-Phe-Cys]-Asp-Gab-Arg-Ttds-Lys(AF488)-NH2; also: DOTA complexing lutetium
notes: also called 3BP-4372
pIC50 Category (Activity) [1]: > 8 pIC50
pIC50 Category (FACS) [2]: > 8 pIC50

B2: Hex-[Cys(tMeBn(DOTA-AET))-Pro-Pro-Thr-Gln-Phe-Cys]-Asp-Ttds-Lys(DOTA)-NH2 (peptide)
peptide: Hexanoyl-CPPTQFCD[Ttds″]K(DOTA)-NH2
modifications: linker 1-7 via TBMB(SCH2CH2NH-DOTA); not fully specified (residue 1); printed as Hex-[Cys(tMeBn(DOTA-AET))-Pro-Pro-Thr-Gln-Phe-Cys]-Asp-Ttds-Lys(DOTA)-NH2
notes: also called 3BP-4391
pIC50 Category (Activity) [1]: > 8 pIC50
pIC50 Category (FACS) [2]: > 8 pIC50

B3: DOTA-Ttds-Nle-[Cys(3MeBn)-Pro-Pro-Thr-Gln-Phe-Cys]-Asp-Ttds-Lys(DOTA)-NH2 (peptide)
peptide: {DOTA}-[Ttds][Nle]CPPTQFCD[Ttds]K(DOTA)-NH2
modifications: linker 3-9 via mXylylene
SMILES: CCCC[C@H](NC(=O)CCC(=O)NCCCOCCOCCOCCCNC(=O)CN1CCN(CC(=O)O)CCN(CC(=O)O)CCN(CC(=O)O)CC1)C(=O)N[C@H]1CSCc2cccc(c2)CSC[C@@H](C(=O)N[C@@H](CC(=O)O)C(=O)NCCCOCCOCCOCCCNC(=O)CCC(=O)N[C@@H](CCCCNC(=O)CN2CCN(CC(=O)O)CCN(CC(=O)O)CCN(CC(=O)O)CC2)C(N)=O)NC(=O)[C@H](Cc2ccccc2)NC(=O)[C@H](CCC(N)=O)NC(=O)[C@H]([C@@H](C)O)NC(=O)[C@@H]2CCCN2C(=O)[C@@H]2CCCN2C1=O
notes: also called 3BP-4393
pIC50 Category (Activity) [1]: > 8 pIC50
pIC50 Category (FACS) [2]: > 8 pIC50

B4: nBu-CAyl-[Cys(tMeBn(DOTA-AET))-Nmg-Pro-Thr-Gln-Phe-Cys]-OH (peptide)
peptide: {nBu‑CAyl}-C[Sar]PTQFC-OH
modifications: linker 1-7 via TBMB(SCH2CH2NH-DOTA)
SMILES: CCCCNC(=O)N[C@H]1CSCc2cc(CSCCNC(=O)CN3CCN(CC(=O)O)CCN(CC(=O)O)CCN(CC(=O)O)CC3)cc(c2)CSC[C@@H](C(=O)O)NC(=O)[C@H](Cc2ccccc2)NC(=O)[C@H](CCC(N)=O)NC(=O)[C@H]([C@@H](C)O)NC(=O)[C@@H]2CCCN2C(=O)CN(C)C1=O
notes: also called 3BP-4607
pIC50 Category (Activity) [1]: > 8 pIC50
pIC50 Category (FACS) [2]: > 8 pIC50

B5: nBu-CAyl-[Cys(tMeBn(DOTA-AET))-Nmg-Pro-Thr-Gln-Phe-Cys]-NH2 (peptide)
peptide: {nBu‑CAyl}-C[Sar]PTQFC-NH2
modifications: linker 1-7 via TBMB(SCH2CH2NH-DOTA)
SMILES: CCCCNC(=O)N[C@H]1CSCc2cc(CSCCNC(=O)CN3CCN(CC(=O)O)CCN(CC(=O)O)CCN(CC(=O)O)CC3)cc(c2)CSC[C@@H](C(N)=O)NC(=O)[C@H](Cc2ccccc2)NC(=O)[C@H](CCC(N)=O)NC(=O)[C@H]([C@@H](C)O)NC(=O)[C@@H]2CCCN2C(=O)CN(C)C1=O
notes: also called 3BP-4621
pIC50 Category (Activity) [1]: > 8 pIC50
pIC50 Category (FACS) [2]: > 8 pIC50

B6: Hex-[Cys(3MeBn)-Pro-Pro-Thr-Glu-Phe-Cys]-Asp-His-Phe-Arg-Asp-Ttds-Lys(DOTA)-NH2 (peptide)
peptide: Hexanoyl-CPPTEFCDHFRD[Ttds″]K(DOTA)-NH2
modifications: linker 1-7 via mXylylene
SMILES: CCCCCC(=O)N[C@H]1CSCc2cccc(c2)CSC[C@@H](C(=O)N[C@@H](CC(=O)O)C(=O)N[C@@H](Cc2c[nH]cn2)C(=O)N[C@@H](Cc2ccccc2)C(=O)N[C@@H](CCCNC(=N)N)C(=O)N[C@@H](CC(=O)O)C(=O)NCCCOCCOCCOCCCNC(=O)CCC(=O)N[C@@H](CCCCNC(=O)CN2CCN(CC(=O)O)CCN(CC(=O)O)CCN(CC(=O)O)CC2)C(N)=O)NC(=O)[C@H](Cc2ccccc2)NC(=O)[C@H](CCC(=O)O)NC(=O)[C@H]([C@@H](C)O)NC(=O)[C@@H]2CCCN2C(=O)[C@@H]2CCCN2C1=O
pIC50 (PREP) [3]: < 6 pIC50
pIC50 (DPP4) [4]: < 6 pIC50
pKD Category [5]: > 8 pKD

B7: DOTA-Ttds-Nle-[Cys(3MeBn)-Pro-Pro-Thr-Glu-Phe-Cys]-Asp-His-Phe-Arg-Asp-NH2 (peptide)
peptide: {DOTA}-[Ttds(4)][Nle]CPPTEFCDHFRD-NH2
modifications: linker 3-9 via mXylylene
SMILES: CCCC[C@H](NC(=O)CCC(=O)NCCCOCCOCCOCCCNC(=O)CN1CCN(CC(=O)O)CCN(CC(=O)O)CCN(CC(=O)O)CC1)C(=O)N[C@H]1CSCc2cccc(c2)CSC[C@@H](C(=O)N[C@@H](CC(=O)O)C(=O)N[C@@H](Cc2c[nH]cn2)C(=O)N[C@@H](Cc2ccccc2)C(=O)N[C@@H](CCCNC(=N)N)C(=O)N[C@@H](CC(=O)O)C(N)=O)NC(=O)[C@H](Cc2ccccc2)NC(=O)[C@H](CCC(=O)O)NC(=O)[C@H]([C@@H](C)O)NC(=O)[C@@H]2CCCN2C(=O)[C@@H]2CCCN2C1=O
pIC50 (PREP) [3]: < 6 pIC50
pIC50 (DPP4) [4]: < 6 pIC50
pKD Category [5]: > 8 pKD

Hexanoyl-CPPTQFC-NH2 (linker 1-7 via mXylylene) [Hex-[Cys(3MeBn)-Pro-Pro-Thr-Gln-Phe-Cys]-NH2]
pIC50 (PREP) [3]: < 6 pIC50
pIC50 (DPP4) [4]: < 6 pIC50

B8: Hex-[Cys(tMeBn(DOTA-AET))-Pro-Pro-Thr-Gln-Phe-Cys]-OH (peptide)
peptide: Hexanoyl-CPPTQFC-OH
modifications: bridge 1-7; not fully specified (bridges); printed as Hex-[Cys(tMeBn(DOTA-AET))-Pro-Pro-Thr-Gln-Phe-Cys]-OH; also: DOTA-AET attached to tMeBn scaffold
pIC50 (PREP) [3]: < 6 pIC50
pIC50 (DPP4) [4]: < 6 pIC50
